Test results reported in the RNAGym collection of RNA variant scans (doi:10.1073/pnas.2313332121).
This sample holds only a part of the variants without activity.

B1: TPR 5TU (parent)
chain: GGAUCUUCUCGAUCUAACAAAAAAGACAAAUCUGCCACAAAGCUUGAGAGCAUCUUCGGAUGCAGAGGCGGCAGCCUUCGGUGGCGCGAUAGCGCCAACGUUCUCAACUAUGACACGCAAAACGCGUGCUCCGUUGAAUGGAGUUUAUCAUG

Variants of: B1
Assay: polymerase ribozyme fitness, log enrichment relative to wild type (log ratio); higher = more active; in vitro selection for triplet polymerase activity
Outline: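 Fitness measures genotype enrichment against wild-type enrichment on a logarithmic scale, with inverse-variance-weighted averaging of replicates. The logarithm is base 2, and genotypes were kept only with ≥10 input reads and ≥1 read per output in Illumina sequencing. The sequenced libraries came from one triplicate in vitro selection round, including frozen incubation at −7 °C, of PCR-built, transcribed mutant libraries of each subunit of a heterodimeric triplet polymerase ribozyme.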

Variant	polymerase ribozyme fitness (log ratio)
G50U U145C	-0.536
C51G A52G U102A	-3.01
G50C U78A G92A	≤ -4.2
C51A A66G G71A G80C G94C A113G	≤ -4.2
C51G G84A C95G A119G	-2.85
G50C G68A A142U	≤ -4.2
C51U G84A C96A C149U	-2.56
A52C A60G	-0.764
C51A A60G C95G U146C U151G	≤ -4.2
G50U U146C	0.0837
G50U C99A	-1.59
C51G U56A A106U	≤ -4.2
G50U U56A G83A	-0.268
G50C U130C	-1.3
C51U A73U C118G A119C	-1.81
G50C U134C	-2.51
G50U G84A A91U C116A	≤ -4.2
C51A G68U U82C C116U U146G	≤ -4.2
G50C G84A U104C A106C	≤ -4.2
C51U A89C C96U A142U	-2.78
G50U A97U A147U	0.621
G50U U55G C75A A97G A137U U151A	≤ -4.2
C51U G86A	-2.13
C51U G86U	-1.45

Variant	polymerase ribozyme fitness (log ratio)
G50U A52G	-0.0259
C51A G86A G126A G128U G141A	≤ -4.2
G50C G58U	-1.88
C51A G86C A89U A113U G126A G141U	≤ -4.2
A52C C54U G68A C93U C103A A106G A110U	≤ -4.2
C51A C75U C95U A106C G128U	≤ -4.2
G50U G65C A66C C96G	≤ -4.2
G50U U78C U139G	-3.06
C51U G83U	-0.266
C51U C87U A121U	-0.813
C51A A52G	-0.455
G50U A60C G84A	-2.47
G50C G59A U145C	-3.51
G50C U56C C87G A89C G100C A120G C125U	≤ -4.2
G50U A52G C75A C85A G92C G126U G128A A147U	≤ -4.2
C51U G92U C99A A106G C123G C129U	-2.74
C51G C125U G141U	-3.54
C51A G74A	≤ -4.2
G50U C95A U109C	≤ -4.2
C51U C116U A121C G152U	-3.78
C51A G58A G74C C96U A107C	≤ -4.2
G50C G141U	-2.26
G50C G81C C93G C95U A110C	≤ -4.2
G50U C51U C72U C93G U101C C108A G112U A113U A121G	≤ -4.2

Variant	polymerase ribozyme fitness (log ratio)
C51A U55G A60G C93U	-2.7
C51U A52G C87U A137C	≤ -4.2
C51U C95A A98U C116G	0.822
C51U G59A C85G A137U	≤ -4.2
C51A C85A G141A	-1.93
C51A C96A	-1.26
G50U C57U G92C	-0.983
C51U G67A C72A C123U C132A U134C	≤ -4.2
G50C G67A U90G A142G	≤ -4.2
G50U G83U C85G	-4.13
A52C C54A A89G G117A	-3.55
C51U A89G C99U A150G	-3.67
G50U C75G G86U C87A A89U	≤ -4.2
G50U C95U C118A G140A	≤ -4.2
C51G C87A	≤ -4.2
G50U C57U G84U C103U	-2.21
C51U U55A U56A G58C U82A A150C	≤ -4.2
G50C G58A C125A	-3.17
C51U C85U G140C	≤ -4.2
G50U G58U G59U C76A	≤ -4.2
C51U G65C C87U	≤ -4.2
G50U G86U	-1.71
G50U G86A	-2.57
C51A G117U	-1.02

Variant	polymerase ribozyme fitness (log ratio)
C51A A73U C99U C103A U104A G126C U139A	≤ -4.2
C51U C75U C96U G143C	-4.11
G50U G67U C85G C103U G140A A147G	≤ -4.2
C51U C95U	-1.69
C51U C95G	-1.68
C51A C57U G59U G100C A119U A122U U145G	-4.13
C51U A89G A97G G143U	-3.43
C51A C85U	-1.01
G50U U144G U145A	0.245
C51G G80U G94U	≤ -4.2
A52C C57U C63A C72G U77A C85A A107U A122U G136C U148A	≤ -4.2
C51U U53A C96G G124U A147U	-3.84
A52C A98U	-0.983
G50U G94A A113G A147C	-3.89
G50C G59A	-3.03
G50U	0.257
C51U C99U	-0.392
C51U A73G C96G C123U	-0.999
C51A A52U C63U C99G A106C A119G G126U	≤ -4.2
G50U U102A	-0.888
G50U U102G	-2.92
C51G C85U U144G	-1.3
G50C G94A A107G U134C	≤ -4.2
A52C A122G	-1.4

Variant	polymerase ribozyme fitness (log ratio)
C51U G81C C87U C116A G124A U134A U148A	≤ -4.2
C51U G92U	-1.86
C51U C75G G88A U130A	≤ -4.2
G50C G59C G83A	-3.91
C51U U53G A119U G143C	≤ -4.2
G50U G94A U102C C103U	-3.63
C51U C54U C76A G86A	-2.96
C51A U55A A60C G74A G81A U90G C95A	≤ -4.2
C51G U56A A89U A119C C129U	≤ -4.2
C51U C93A A150U	-0.998
A52C A60C C79U C93A G152U	≤ -4.2
G50C G59C C95G	-3.67
G50C U104C C116A G143U	≤ -4.2
C51U C87U	-1.13
C51U C87A	≤ -4.2
G50U A66C C69U A73C	≤ -4.2
G50U U55A A66G C95U C103A A138U	≤ -4.2
A52C A64G C85U U145G	≤ -4.2
C51U A52C U82G U135G	-3.54
C51A A52C A73G G83U U127C	≤ -4.2
G50C G59C G62A G68C C95U U148C	≤ -4.2
C51A C118G	-3.24
G50C G94A C129U U135G	≤ -4.2
G50U G86A C93U C96U	-0.529

Variant	polymerase ribozyme fitness (log ratio)
G50U U55A G71U	-3.35
C51A U102A	-1.41
C51G C75U C79A G80C C87A A98U C103G U145G	≤ -4.2
G50U A52C A64C G92C	≤ -4.2
C51U G94A	-1.11
C51U G94C	-0.484
C51U A98U U135C U144A	-3.82
G50U A64G C103G C125A A142G	≤ -4.2
C51U C85G	-2.53
C51U C85A	-2.63
G50C U102G	-3.32
C51U A89G G141U	-0.598
A52C A110G A150G	-3.86
G50U C87U G152U	-4.17
C51A A137C	≤ -4.2
C51U G84A	-0.489
C51U G84U	-1.52
G50U C54G A150U	-2.15
C51A G58C	-2.22
G50C G81A G86U C87A G136U	≤ -4.2
C51U A73G G92U	-0.595
G50C U77G C93G	≤ -4.2
C51U C96U G124A	-0.0401
C51U A91G G100A A110U A121U	≤ -4.2

Variant	polymerase ribozyme fitness (log ratio)
C51U U55A C76A U90C C96G G100A U101G	≤ -4.2
G50U C57U A73U G86U G126U	≤ -4.2
G50U A60U	-0.536
C51U G92C U135C	-3.1
G50C U90C U104G	≤ -4.2
C51U A52U G74C A113C C131A	≤ -4.2
C51U U56A	-0.892
G50U G86C A120C	-3.03
G50C U104G	≤ -4.2
C51U U53A G65U G84U C93A C116G U135G	≤ -4.2
C51U C76U C96U A137U U144C U151A	≤ -4.2
G50U C79G A98U C99G	≤ -4.2
G50U C93U	-2.05
A52C A113U	-3.88
A52C A113C	-3.36
G50C C129U	-3.94
C51G U56G C93U	-3.95
C51A U55G G58U C95A	-1.74
C51G C54U A98G C132A U135G	≤ -4.2
C51U U61A G86C	-4.06
C51A G84A U144A	-2.52
G50U C96U C99A C103G G124C C129A U144G	≤ -4.2
C51U G81C C85U G117C U134A A137G	-3.98
